Data: patent US20250326840A1 (QURE BIOTECHNOLOGY SHANGHAI, published 2025)

Key:
QP003 (PDL1-his) = assay: ELISA, QP003 (PDL1-his) captured on coated anti-his, anti-hFc detection; unit from the x axis Log(Conc.(nM))
QP094 (human SIRPα V1 …) [1] = target: T1, QP094 (human SIRPα V1 ECD(E31-R370)-flag-his) (human, UniProt P78324 31-370); assay: binding ELISA, antigen coated
T1 construct: the construct carries flag and his tags; also called SIRPαV1-flag-his; SIRPαV1-his (QP094)

QP096 (human SIRPα V2 …) [2] = target: T2, QP096 (human SIRPα V2 ECD(E31-R370)-flag-his) (human); assay: binding ELISA, antigen coated
T2 construct: the construct carries flag and his tags; also called SIRPαV2-Flag-his; Human SIRPα V2 (QP096)
T2 sequence (chain, as listed by the source limits assumed): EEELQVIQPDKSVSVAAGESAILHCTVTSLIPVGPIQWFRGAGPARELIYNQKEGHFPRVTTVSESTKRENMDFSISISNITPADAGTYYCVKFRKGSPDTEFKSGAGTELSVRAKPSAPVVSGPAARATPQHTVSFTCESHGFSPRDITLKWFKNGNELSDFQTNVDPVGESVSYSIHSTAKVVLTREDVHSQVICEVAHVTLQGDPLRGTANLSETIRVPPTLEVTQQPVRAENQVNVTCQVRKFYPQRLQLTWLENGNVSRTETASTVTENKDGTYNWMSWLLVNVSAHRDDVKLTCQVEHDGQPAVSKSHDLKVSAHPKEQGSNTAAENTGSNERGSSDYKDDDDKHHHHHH

[3] = target: T3, QP098 (cyno SIRPα (I7G9Z7) ECD(E31-R369)-flag-his) (cynomolgus); assay: binding ELISA, antigen coated
T3 construct: the construct carries flag and his tags; also called cynoSIRPα (ECD); cynomolgus SIRPα
T3 chain: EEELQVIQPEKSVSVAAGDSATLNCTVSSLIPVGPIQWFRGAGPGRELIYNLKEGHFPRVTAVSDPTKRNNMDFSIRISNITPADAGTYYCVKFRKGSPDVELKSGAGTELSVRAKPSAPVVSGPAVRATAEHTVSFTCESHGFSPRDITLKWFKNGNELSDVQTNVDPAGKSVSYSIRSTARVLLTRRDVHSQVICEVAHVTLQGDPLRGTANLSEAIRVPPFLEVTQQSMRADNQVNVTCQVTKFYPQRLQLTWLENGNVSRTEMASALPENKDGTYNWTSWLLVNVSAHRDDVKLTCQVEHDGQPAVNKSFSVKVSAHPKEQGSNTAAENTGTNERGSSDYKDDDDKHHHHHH

[4] = target: T4, QP100 (cyno SIRPα (G7PGS8) ECD(E29-R368)-flag-his) (cynomolgus); assay: binding ELISA, antigen coated
T4 construct: the construct carries flag and his tags; also called cynoSIRPα-flag-his; Cynomolgus SIRPα (QP100)
T4 chain: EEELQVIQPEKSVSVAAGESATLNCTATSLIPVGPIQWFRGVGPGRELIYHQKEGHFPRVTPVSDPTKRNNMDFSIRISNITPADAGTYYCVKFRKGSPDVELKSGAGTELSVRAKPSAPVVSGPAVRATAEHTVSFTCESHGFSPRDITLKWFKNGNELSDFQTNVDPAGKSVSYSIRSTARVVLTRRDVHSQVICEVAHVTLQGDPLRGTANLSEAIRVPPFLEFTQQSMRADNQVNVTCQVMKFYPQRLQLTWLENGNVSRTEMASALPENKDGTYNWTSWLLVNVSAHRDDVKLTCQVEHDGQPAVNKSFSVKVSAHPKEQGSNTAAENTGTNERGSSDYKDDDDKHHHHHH

[5] = target: T5, QP271 (rhesus SIRPα1-flag-his T-557-28) (rhesus monkey); assay: binding ELISA, antigen coated
T5 construct: also called rhesus monkey SIRPα (QP271); monkeySIRPα1-flag-his
T5 chain: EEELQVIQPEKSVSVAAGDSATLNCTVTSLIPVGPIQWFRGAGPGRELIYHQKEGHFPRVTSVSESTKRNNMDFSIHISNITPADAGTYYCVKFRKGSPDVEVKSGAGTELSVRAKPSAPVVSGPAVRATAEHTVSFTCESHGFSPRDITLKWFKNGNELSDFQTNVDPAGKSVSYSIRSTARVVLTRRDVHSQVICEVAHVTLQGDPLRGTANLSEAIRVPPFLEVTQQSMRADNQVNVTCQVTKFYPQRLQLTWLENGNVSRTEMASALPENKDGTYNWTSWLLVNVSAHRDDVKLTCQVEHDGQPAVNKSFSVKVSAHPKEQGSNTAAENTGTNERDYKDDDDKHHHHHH

[6] = target: T6, QP273 (cynoSIRPα2-flag-his T-557-14) (cynomolgus); assay: binding ELISA, antigen coated
T6 construct: also called cynomolgus SIRPα (QP273)
T6 chain: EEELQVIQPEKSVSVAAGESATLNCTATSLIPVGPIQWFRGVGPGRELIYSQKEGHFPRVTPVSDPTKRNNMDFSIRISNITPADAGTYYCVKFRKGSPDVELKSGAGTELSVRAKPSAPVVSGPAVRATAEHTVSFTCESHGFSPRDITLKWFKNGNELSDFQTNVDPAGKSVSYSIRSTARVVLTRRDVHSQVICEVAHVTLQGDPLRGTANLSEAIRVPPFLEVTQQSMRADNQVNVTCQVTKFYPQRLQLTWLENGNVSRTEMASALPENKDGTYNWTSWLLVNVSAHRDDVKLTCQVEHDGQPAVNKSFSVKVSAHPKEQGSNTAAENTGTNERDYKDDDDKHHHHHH

QP002 [7] = target: T7, QP002 (biotinylated in the blocking assays, sites not given); assay: blocking ELISA: QP001.2 (CD47) coated, biotin-QP002 (SIRPα-FC) mixed with the antibody, HRP-streptavidin; blocked ligand: CD47; unit from the x axis Log[Conc.(ug/ml)]
T7 construct: also called SIRPα-FC; Biotin-QP002
T7 sequence (SIRPα-Fc fusion chain, as listed by the source): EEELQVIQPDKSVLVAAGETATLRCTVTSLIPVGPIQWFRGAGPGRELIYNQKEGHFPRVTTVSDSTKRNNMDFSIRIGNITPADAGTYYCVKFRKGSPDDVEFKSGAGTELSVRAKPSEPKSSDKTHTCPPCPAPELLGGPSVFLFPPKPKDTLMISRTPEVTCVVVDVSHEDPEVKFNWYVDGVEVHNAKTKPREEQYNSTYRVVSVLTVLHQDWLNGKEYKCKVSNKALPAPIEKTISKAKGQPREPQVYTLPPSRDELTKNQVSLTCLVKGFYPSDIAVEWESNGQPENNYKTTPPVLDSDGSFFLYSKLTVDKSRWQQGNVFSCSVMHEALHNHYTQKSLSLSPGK

QP094 (human SIRPα V1 …) [8] = target: T1, QP094 (human SIRPα V1 …); assay: SPR, Biacore
QP096 (human SIRPα V2 …) [9] = target: T2, QP096 (human SIRPα V2 …); assay: SPR, Biacore
QP002 [10] = target: T7, QP002; assay: blocking ELISA: QP001.2 (CD47) coated, biotin-QP002 (SIRPα-FC) mixed with the antibody, HRP-streptavidin; blocked ligand: CD47
[11] = target: T3, QP098 (cyno SIRPα (I7G9Z7) …); assay: SPR, Biacore
[12] = target: T5, QP271 (rhesus SIRPα1-flag-his T-557-28); assay: SPR, Biacore
[13] = target: T6, QP273 (cynoSIRPα2-flag-his T-557-14); assay: SPR, Biacore

Chain of QP003 (PDL1-his) (chain, as listed by the source limits assumed): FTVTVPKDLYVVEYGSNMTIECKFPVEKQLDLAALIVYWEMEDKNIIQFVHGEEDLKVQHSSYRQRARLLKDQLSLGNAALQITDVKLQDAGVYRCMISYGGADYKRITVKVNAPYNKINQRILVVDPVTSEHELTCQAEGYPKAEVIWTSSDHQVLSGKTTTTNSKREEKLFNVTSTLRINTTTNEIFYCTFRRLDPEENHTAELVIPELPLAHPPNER
T1 sequence (P78324 other isoform, or with tags, fused parts or gaps limits assumed): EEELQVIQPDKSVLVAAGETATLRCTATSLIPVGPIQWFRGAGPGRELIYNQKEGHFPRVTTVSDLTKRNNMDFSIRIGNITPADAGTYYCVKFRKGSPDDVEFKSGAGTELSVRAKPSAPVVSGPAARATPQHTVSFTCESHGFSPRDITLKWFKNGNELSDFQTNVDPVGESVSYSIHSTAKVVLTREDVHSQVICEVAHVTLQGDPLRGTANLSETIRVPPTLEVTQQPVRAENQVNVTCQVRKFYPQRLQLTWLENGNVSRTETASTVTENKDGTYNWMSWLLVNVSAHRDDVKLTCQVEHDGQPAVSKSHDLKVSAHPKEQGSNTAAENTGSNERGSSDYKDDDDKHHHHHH

B1: QP06260279 (bispecific antibody, human IgG1, kappa, L234A L235A)
heavy: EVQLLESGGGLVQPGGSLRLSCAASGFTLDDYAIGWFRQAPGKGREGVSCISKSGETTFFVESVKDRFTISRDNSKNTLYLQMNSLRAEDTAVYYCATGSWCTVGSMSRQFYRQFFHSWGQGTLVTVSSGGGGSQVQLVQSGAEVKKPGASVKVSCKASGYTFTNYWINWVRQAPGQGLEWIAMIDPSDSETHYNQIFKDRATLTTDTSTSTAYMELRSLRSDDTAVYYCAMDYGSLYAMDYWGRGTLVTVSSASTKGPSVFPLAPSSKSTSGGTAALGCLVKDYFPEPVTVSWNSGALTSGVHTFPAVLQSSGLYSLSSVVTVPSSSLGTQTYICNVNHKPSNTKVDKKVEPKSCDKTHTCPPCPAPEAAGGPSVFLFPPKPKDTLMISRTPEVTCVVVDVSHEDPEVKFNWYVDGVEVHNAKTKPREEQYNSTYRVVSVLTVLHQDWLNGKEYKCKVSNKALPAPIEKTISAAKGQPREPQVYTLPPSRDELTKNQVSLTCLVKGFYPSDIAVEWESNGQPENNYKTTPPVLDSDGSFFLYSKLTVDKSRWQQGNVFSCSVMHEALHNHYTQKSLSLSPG
light: DIVLTQSPDSLAVSLGERATINCRASQSVRSSGYNWIFWYQQKPGQPPKLLIYLASNRDSGVPDRFSGSGSGTDFTLTISSLQAEDVAVYYCQHSRELPTFGQGTKLEIKRTVAAPSVFIFPPSDEQLKSGTASVVCLLNNFYPREAKVQWKVDNALQSGNSQESVTEQDSKDSTYSLSSTLTLSKADYEKHKVYACEVTHQGLSSPVTKSFNRGEC
notes: Anti-PD-L1 VHH-G4S fused to the N-terminus of the heavy chain
EC50 (QP003 (PDL1-his)): 0.0176 nM

B2: QP06270279 (bispecific antibody, human IgG1, kappa, L234A L235A)
heavy: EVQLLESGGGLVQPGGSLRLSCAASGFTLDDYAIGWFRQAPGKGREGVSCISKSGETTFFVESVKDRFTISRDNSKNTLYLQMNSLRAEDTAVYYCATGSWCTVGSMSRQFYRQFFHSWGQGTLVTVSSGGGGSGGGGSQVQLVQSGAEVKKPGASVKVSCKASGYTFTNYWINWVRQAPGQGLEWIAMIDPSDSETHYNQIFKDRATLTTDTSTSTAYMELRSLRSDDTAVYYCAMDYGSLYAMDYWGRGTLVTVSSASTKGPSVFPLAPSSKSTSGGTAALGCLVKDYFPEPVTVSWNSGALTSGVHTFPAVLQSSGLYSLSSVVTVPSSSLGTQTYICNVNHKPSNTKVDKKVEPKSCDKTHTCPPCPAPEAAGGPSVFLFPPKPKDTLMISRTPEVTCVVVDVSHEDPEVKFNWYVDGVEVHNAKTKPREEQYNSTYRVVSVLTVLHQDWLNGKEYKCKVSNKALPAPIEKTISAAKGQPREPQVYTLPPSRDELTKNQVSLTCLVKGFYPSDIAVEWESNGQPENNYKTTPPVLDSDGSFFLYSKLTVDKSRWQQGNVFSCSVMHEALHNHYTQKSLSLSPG
light: DIVLTQSPDSLAVSLGERATINCRASQSVRSSGYNWIFWYQQKPGQPPKLLIYLASNRDSGVPDRFSGSGSGTDFTLTISSLQAEDVAVYYCQHSRELPTFGQGTKLEIKRTVAAPSVFIFPPSDEQLKSGTASVVCLLNNFYPREAKVQWKVDNALQSGNSQESVTEQDSKDSTYSLSSTLTLSKADYEKHKVYACEVTHQGLSSPVTKSFNRGEC
notes: Anti-PD-L1 VHH-(G4S)2 fused to the N-terminus of the heavy chain
EC50 (QP003 (PDL1-his)): 0.0198 nM

B3: QP06280279 (bispecific antibody, human IgG1, kappa, L234A L235A)
heavy: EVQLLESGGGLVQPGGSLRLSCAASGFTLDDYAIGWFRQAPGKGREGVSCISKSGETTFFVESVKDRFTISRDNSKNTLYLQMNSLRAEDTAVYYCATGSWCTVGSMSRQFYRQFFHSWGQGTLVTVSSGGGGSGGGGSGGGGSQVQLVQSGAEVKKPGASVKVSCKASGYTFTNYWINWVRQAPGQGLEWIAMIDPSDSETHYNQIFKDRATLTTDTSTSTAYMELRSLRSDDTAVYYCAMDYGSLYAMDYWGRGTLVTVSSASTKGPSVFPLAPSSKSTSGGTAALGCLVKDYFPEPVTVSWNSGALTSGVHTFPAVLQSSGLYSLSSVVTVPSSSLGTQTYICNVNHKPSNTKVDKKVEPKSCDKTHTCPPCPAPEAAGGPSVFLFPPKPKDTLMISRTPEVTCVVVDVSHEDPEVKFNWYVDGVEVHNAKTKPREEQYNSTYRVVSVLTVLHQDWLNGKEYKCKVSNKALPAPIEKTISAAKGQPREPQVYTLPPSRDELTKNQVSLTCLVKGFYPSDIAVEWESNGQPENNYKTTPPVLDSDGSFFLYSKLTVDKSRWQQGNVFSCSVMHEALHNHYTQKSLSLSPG
light: DIVLTQSPDSLAVSLGERATINCRASQSVRSSGYNWIFWYQQKPGQPPKLLIYLASNRDSGVPDRFSGSGSGTDFTLTISSLQAEDVAVYYCQHSRELPTFGQGTKLEIKRTVAAPSVFIFPPSDEQLKSGTASVVCLLNNFYPREAKVQWKVDNALQSGNSQESVTEQDSKDSTYSLSSTLTLSKADYEKHKVYACEVTHQGLSSPVTKSFNRGEC
notes: Anti-PD-L1 VHH-(G4S)3 fused to the N-terminus of the heavy chain
EC50 (QP003 (PDL1-his)): 0.0215 nM

B4: QP256291 (antibody, human IgG4, V domains shown)
VH: QVQLVQSGAEVKKPGASVKVSCKASGYTFTNYWINWVRQAPGQGLEWIAMIDPSDSETHYNQIFKDRATLTTDTSTSTAYMELRSLRSDDTAVYYCAMDYGSLYAMDYWGRGTLVTVSS
VL: DIVLTQSPDSLAVSLGERATINCRASKSVGSSGYNWLFWYQQKPGQPPKLLIYLASNRDSGVPDRFSGSGSGTDFTLTISSLQAEDVAVYYCQHSRELPTFGQGTKLEIK
notes: Human IgG4 heavy constant region and kappa CL
EC50 (QP094 (human SIRPα V1 …) [1]): 1.86 ng/mL | EC50 (QP096 (human SIRPα V2 …) [2]): 1.43 ng/mL | EC50 [3]: 1.57 ng/mL | EC50 [4]: 1.18 ng/mL | EC50 [5]: 1.17 ng/mL | EC50 [6]: 1.62 ng/mL | IC50 (QP002 [7]): 23.4 ng/mL

B5: QP2561771 (antibody, human IgG4, V domains shown)
VH: QVQLVQSGAEVKKPGASVKVSCKASGYTFTNYWINWVRQAPGQGLEWIAMIDPSDSETHYNQIFKDRATLTTDTSTSTAYMELRSLRSDDTAVYYCAMDYGSLYAMDYWGRGTLVTVSS
VL: DIVLTQSPDSLAVSLGERATINCRASKSVSSSGYNWIFWYQQKPGQPPKLLIYLASNRDSGVPDRFSGSGSGTDFTLTISSLQAEDVAVYYCQESRELPTFGQGTKLEIK
notes: as for B4
EC50 (QP094 (human SIRPα V1 …) [1]): 1.15 ng/mL | EC50 (QP096 (human SIRPα V2 …) [2]): 1.13 ng/mL | EC50 [3]: 1.08 ng/mL | EC50 [4]: 1.13 ng/mL | EC50 [5]: 1.13 ng/mL | EC50 [6]: 1.22 ng/mL | IC50 (QP002 [7]): 23.3 ng/mL

B6: QP2561581 (antibody, human IgG4, V domains shown)
VH: QVQLVQSGAEVKKPGASVKVSCKASGYTFTNYWINWVRQAPGQGLEWIAMIDPSDSETHYNQIFKDRATLTTDTSTSTAYMELRSLRSDDTAVYYCAMDYGSLYAMDYWGRGTLVTVSS
VL: DIVLTQSPDSLAVSLGERATINCRASKSVSSSGYNYIFWYQQKPGQPPKLLIYLASNLDPGVPDRFSGSGSGTDFTLTISSLQAEDVAVYYCQHSRELPTFGQGTKLEIK
notes: as for B4
Kd (QP094 (human SIRPα V1 …) [8]): 0.137 nM | Kd (QP096 (human SIRPα V2 …) [9]): 0.176 nM | EC50 (QP094 (human SIRPα V1 …) [1]): 1.07 ng/mL | EC50 (QP096 (human SIRPα V2 …) [2]): 0.862 ng/mL | EC50 [3]: 0.918 ng/mL | EC50 [4]: 0.758 ng/mL | EC50 [5]: 0.555 ng/mL | EC50 [6]: 0.921 ng/mL | IC50 (read off the curve) (QP002 [10]): ~20 ng/mL

B7: QP2561594 (antibody, human IgG4, V domains shown)
VH: QVQLVQSGAEVKKPGASVKVSCKASGYTFTNYWINWVRQAPGQGLEWIAMIDPSDSETHYNQIFKDRATLTTDTSTSTAYMELRSLRSDDTAVYYCAMDYGSLYAMDYWGRGTLVTVSS
VL: DIVLTQSPDSLAVSLGERATINCRASKSVSSSGYNYIFWYQQKPGQPPKLLIYLASNLDSGVPDRFSGSGSGTDFTLTISSLQAEDVAVYYCQHSRDLPTFGQGTKLEIK
notes: as for B4
EC50 (QP094 (human SIRPα V1 …) [1]): 1.12 ng/mL | EC50 (QP096 (human SIRPα V2 …) [2]): 1.05 ng/mL | EC50 [3]: 1.13 ng/mL | EC50 [4]: 0.983 ng/mL | EC50 [5]: 0.807 ng/mL | EC50 [6]: 2.35 ng/mL | IC50 (read off the curve) (QP002 [10]): ~20 ng/mL

B8: QP2561770 (antibody, human IgG4, V domains shown)
VH: QVQLVQSGAEVKKPGASVKVSCKASGYTFTNYWINWVRQAPGQGLEWIAMIDPSDSETHYNQIFKDRATLTTDTSTSTAYMELRSLRSDDTAVYYCAMDYGSLYAMDYWGRGTLVTVSS
VL: DIVLTQSPDSLAVSLGERATINCRASQSVRSSGYNWIFWYQQKPGQPPKLLIYLASNRDSGVPDRFSGSGSGTDFTLTISSLQAEDVAVYYCQESRELPTFGQGTKLEIK
notes: as for B4
Kd (QP094 (human SIRPα V1 …) [8]): 0.0288 nM | Kd (QP096 (human SIRPα V2 …) [9]): 0.0368 nM | Kd [11]: 0.256 nM | Kd [12]: 0.1 nM | Kd [13]: 0.163 nM | EC50 (QP094 (human SIRPα V1 …) [1]): 1.61 ng/mL | EC50 (QP096 (human SIRPα V2 …) [2]): 1.36 ng/mL | EC50 [3]: 1.3 ng/mL | EC50 [4]: 1.01 ng/mL | EC50 [5]: 1.21 ng/mL | EC50 [6]: 1.68 ng/mL | IC50 (QP002 [7]): 25 ng/mL

B9: QP32700623 (bispecific antibody, human IgG1, kappa, L234A L235A)
heavy: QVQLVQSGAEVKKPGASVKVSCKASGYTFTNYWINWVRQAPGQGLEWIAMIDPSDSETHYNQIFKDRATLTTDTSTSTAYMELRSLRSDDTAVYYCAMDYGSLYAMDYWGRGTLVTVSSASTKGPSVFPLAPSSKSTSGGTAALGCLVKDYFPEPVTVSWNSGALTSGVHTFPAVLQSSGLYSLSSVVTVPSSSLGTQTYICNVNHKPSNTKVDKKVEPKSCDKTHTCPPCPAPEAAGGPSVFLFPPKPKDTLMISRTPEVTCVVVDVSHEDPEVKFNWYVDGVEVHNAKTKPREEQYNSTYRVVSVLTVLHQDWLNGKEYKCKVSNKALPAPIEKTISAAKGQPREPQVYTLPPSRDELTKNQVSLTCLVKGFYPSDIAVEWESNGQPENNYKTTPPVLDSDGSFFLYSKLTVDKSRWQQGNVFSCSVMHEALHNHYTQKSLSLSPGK
light: EVQLLESGGGLVQPGGSLRLSCAASGFTLDDYAIGWFRQAPGKGREGVSCISKSGETTFFVESVKDRFTISRDNSKNTLYLQMNSLRAEDTAVYYCATGSWCTVGSMSRQFYRQFFHSWGQGTLVTVSSGGGGSDIVLTQSPDSLAVSLGERATINCRASQSVRSSGYNWIFWYQQKPGQPPKLLIYLASNRDSGVPDRFSGSGSGTDFTLTISSLQAEDVAVYYCQHSRELPTFGQGTKLEIKRTVAAPSVFIFPPSDEQLKSGTASVVCLLNNFYPREAKVQWKVDNALQSGNSQESVTEQDSKDSTYSLSSTLTLSKADYEKHKVYACEVTHQGLSSPVTKSFNRGEC
notes: Anti-PD-L1 VHH-G4S fused to the N-terminus of the light chain
EC50 (QP003 (PDL1-his)): 0.0205 nM
